This note sets out measurements from patent US20240158479A1.

Test in all cases: cell-based or functional assay
Test [1] addresses Delta spike (B.1.617.2) on pseudovirus (SARS-CoV-2).
Test [2] addresses Omicron BA.2.12.1 spike on pseudovirus (SARS-CoV-2).
The target of test [3] is Alpha spike (B.1.1.7) on pseudovirus (SARS-CoV-2).
Test [4] addresses Beta spike (B.1.351) on pseudovirus (SARS-CoV-2).
Test [5] has as its target Omicron BQ.1.1 spike on pseudovirus (SARS-CoV-2).
Test [6] deals with Omicron BA.4.6 spike on pseudovirus (SARS-CoV-2).
For test [7], the target named is Omicron BA.1 spike on pseudovirus (SARS-CoV-2).
The target of test [8] is Omicron BA.2.75 spike on pseudovirus (SARS-CoV-2).
Test [9] concerns the target Omicron BA.4/5 spike on pseudovirus (SARS-CoV-2).
In test [10] the target is Gamma spike (P.1) on pseudovirus (SARS-CoV-2).
The target in test [11] is Omicron BA.2 spike on pseudovirus (SARS-CoV-2).

Turning to Casirivimab (antibody), the IC50, pseudovirus neutralization in test [1] was 0.0027 µg/mL; in test [2] it was > 5 µg/mL; in [3], 0.0052 µg/mL; in [4], 0.094 µg/mL; in test [5], > 5 µg/mL; in test [6] it was > 5 µg/mL. Besides, the IC50, pseudovirus neutralization in test [7] was > 5 µg/mL; in test [8] it was 0.44 µg/mL; in [9], > 5 µg/mL; in [10], 0.18 µg/mL; in test [11] it was > 5 µg/mL.

As for Bebtelovimab (antibody), the IC50, pseudovirus neutralization in [1] is 0.0015 µg/mL; in test [2] it was 0.0023 µg/mL; in test [3], 0.002 µg/mL; in test [4], 0.0009 µg/mL; in [5] it was > 5 µg/mL; in test [6], 0.0013 µg/mL. Also, the IC50, pseudovirus neutralization came to 0.0023 µg/mL in test [7]; 0.0033 µg/mL in [8]; 0.0014 µg/mL in test [9]; 0.0017 µg/mL in test [10]; 0.0018 µg/mL in test [11].

Regarding Cilgavimab (antibody), the IC50, pseudovirus neutralization in test [1] was 0.018 µg/mL; in test [2], 0.019 µg/mL; in test [3] it was 0.01 µg/mL; in test [4], 0.003 µg/mL; in test [5] it was > 5 µg/mL; in [6] it was > 5 µg/mL. Also, the IC50, pseudovirus neutralization is 0.21 µg/mL in test [7]; 0.055 µg/mL in test [8]; 0.018 µg/mL in test [9]; 0.005 µg/mL in test [10]; 0.0091 µg/mL in [11].

For the substance Bamlanivimab (antibody), the IC50, pseudovirus neutralization is 0.59 µg/mL in test [1]; > 5 µg/mL in test [2]; 0.0034 µg/mL in test [3]; 0.21 µg/mL in [4]; > 5 µg/mL in test [5]; > 5 µg/mL in test [6]. Moreover, the IC50, pseudovirus neutralization in test [7] was > 5 µg/mL; in test [8], > 5 µg/mL; in [9], > 5 µg/mL; in [10], 1.4 µg/mL; in test [11] it was > 5 µg/mL.

Regarding Tixagevimab (antibody), the IC50, pseudovirus neutralization in [1] is 0.0008 µg/mL; in test [2] it was 0.56 µg/mL; in test [3], 0.0017 µg/mL; in [4], 0.0054 µg/mL; in test [5] it was > 5 µg/mL; in [6], > 5 µg/mL. Further, the IC50, pseudovirus neutralization in [7] is 0.14 µg/mL; in test [8], 0.11 µg/mL; in test [9] it was > 5 µg/mL; in [10], 0.006 µg/mL; in test [11], > 5 µg/mL.

Regarding Imdevimab (antibody), the IC50, pseudovirus neutralization was 0.0035 µg/mL in [1]; 0.1 µg/mL in [2]; 0.0028 µg/mL in test [3]; 0.0028 µg/mL in test [4]; > 5 µg/mL in test [5]; 0.18 µg/mL in [6]. In addition, the IC50, pseudovirus neutralization in test [7] is > 5 µg/mL; in test [8], > 5 µg/mL; in test [9] it was 0.32 µg/mL; in test [10], 0.0019 µg/mL; in test [11] it was 0.51 µg/mL.

Consider Etesevimab (antibody), for which the IC50, pseudovirus neutralization in [1] is 0.0058 µg/mL; in test [2], > 5 µg/mL; in test [3] it was 0.1 µg/mL; in test [4], > 5 µg/mL; in test [5] it was > 5 µg/mL; in test [6], > 5 µg/mL. Also, the IC50, pseudovirus neutralization in test [7], in test [8], in test [9], in test [10] and in test [11] was > 5 µg/mL throughout.
